Data published in the supplement of paper PMC9170038.

What follows are sequences tested on K4 kissing-loop RNA reporter (assay: apparent KD of K4 kissing-loop reporter; higher = weaker reporter binding). Conditions: Eterna round: R107; input ligand: theophylline 20 uM.
Procedure: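 RNA-MaP round R107: designed RNA switches with theophylline, tryptophan, arginine or FMN aptamers are transcribed on-chip within common flanks. They are titrated with a labelled K4 kissing-loop RNA reporter in RNA-MaP buffer (100 mM Tris pH 7.5, 80 mM KCl, 4 mM MgCl2), without ligand or with the indicated ligand. Median apparent KD per design.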
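Note: bound reporter read as fluorescence of individual clusters on recovered sequencing chips by microscopy, with normalized cluster intensities fitted with a binding model.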

In order of falling “apparent KD of K4 kissing-loop reporter” value:
1. UCGCGUCUGUGAGGAUAUCAGAACAGAGUGAUGUUCUGUCAACGCCCAGUGAUGUUGGAUGCGAUCUGAGAAGGCACUGGGCGCA [Same State FMN B GF 9]  1700 nM
2. UAUAGAGUGACGGCCGCCACUAUUGUGAUUUAAUUGUUAGAGUGAUGUUUUGUUGUUUGAUUUUGUAGGACCGGGUUAUAUGUUA [ecewzmullin]  854 nM
3. CUUGUACAUGCCGAGGUAGGUGCGGGUUAGCGAGGACCGGUACGGCCGCCACUCGCCAAGUGAUGUUUGGUCCUUUGGAUCGGCA  690 nM
4. AAAAUAAACCAGUGAUGUUGGUGUCCAGAUACCAGCGAUAAAAUUCGCCCUUGGCAGCUGUGGACGUACAAAAUAAGUACGUCCU [MatMod 3 - Jieux - Same State - Theophylline A]  525 nM
5. UGCGCUGUGUCCUAAAAUGUCCUCCGGGAUACCAGAGUCUUUUUAUUCCCUUGGCAGCUUGAGUGAUGUUUGAUGCCGUUCUUGU [xxbxymullin]  519 nM
6. GACGUGCGAGAGACCGCUCUACCUUGAGAUCGAGGACCGGUACGGCCGCCACUCGGUGUUUAACGUCGAUCCCAGUGAUGUUGGA [theeternabot_sameState_KL_Trp_A_21]  450 nM
7. CCGGCCCAGCCGGAUACCAGUGCGCCGCAGGGAACGGCGGGCCCAGAGUGAUGUUCGGGACACCCUUGGCAGCCGCCUGGGUCCC [#2 Same State - Theophylline B Attempt #30 (HarryS)]  355 nM
8. GCUCAUCCGGCAGGAUAUAGGCAGGUAGAGUGAUGUUCGAACUGCAGUUAUCCAUCCUUCUACCUACUAGAAGGGCCGGAUGAGC  188 nM
9. GCCGUACGCAUGGAUACCAGAGAUGUUAAUCUCGAUGCCAGUGAUGUUGGCUUUAGCAUACUCCCUUGGCAGCCAUGCGUACGGC  186 nM
10. CCGUAUGUCCACUAUUGAGUGAUGUUCAAGCGAGGACCGGUACGGCCGCCACUCGCGUUACCCACCACGUGUCGCCGCACUUACC [theeternabot_exclusion_KL_Trp_A_42]  159 nM
11. CGAGAAAGAGCGACUGGCGAUCUGUCUGAAGGAGCGGGUGCUAGCCCAGGUAGGUCGCAGACUUUGACGCCAGUGAUGUUGGCGG [Titidiisxe]  134 nM

Same assay, conditions: Eterna round: R107; input ligand: tryptophan 2.4 mM

In order of falling “apparent KD of K4 kissing-loop reporter” value:
1. GGUGCUGUUUGUGCCGCCUUCCUCGUUCCUCGAGGACCGGUACGGCCGCCACUCGAGUGAUGUUUGGGUAGCGAUCCCUGCUAGU [Bdazzled - #13 Exc. Tryptophan A]  799 nM
2. AGGCACGAGCAAGGAUAUUGAGUAGAGUGAUGUUCUGCCUGGGUUGGCUCGAAAGAGCCUUCUCAGCGAGAAGGUGCUCGUGCCU [#2 Same State - FMN A Attempt #22 (HarryS)]  719 nM
3. AAAAUAAUCCAGUGAUGUUGGUAUUCAGAUACCAGCGACGAAAGUCGCCCUUGGCAGCUGUGGACGUACAAAAUAAGUACGUCCU  660 nM
4. UGUCAUUGGUCGGCCGCCACUUGAAGGUCAAAGACCAUAGAGUGAUGUUCUAAGACGAAAGUCACAAGGACCGGGACCGAUGACU [TrypBS 3 #SwitchBubble #K4Middle]  607 nM
5. UUUUAAAUGUCUGAUACCAGAGAAAAUAUAUGUAGUGAUGUUAUAUACAAAAUAAAUAAGCUCCCUUGGCAGCAGUAUUAAUUUU [AstrosExc-TheB#6]  529 nM
6. AAUUCAGUGAUGUUGGAAGGCAGGCGGGAUACCAGCGGAGAAUAACGCCCUUGGCAGCCCAAAUAUCCCAAAUAGAUAAUAGUUC [Same State - Theophylline A (Freestyle 2)]  450 nM
7. CCGUGGAGUGAUGUUCCACGUACUACGGAUACCAGCUUUGCCAAAGGCCCUUGGCAGCCGCACGUUGCAGUGAUGUUGUGGCGCG [Same State Theophylline A G9]  299 nM
8. UGUUUUUACUGAAGGAGCGGCAAUUGAUACGUAGAUAUAGUGAUGUUAUAUAAGAUAGAGAGCCAGGUAGGUCGCAGAAUGUAUC [ExArgB.aC]  231 nM
9. AAAGAUGCGUCGGCCGCCACUGUGAUCUACGAAAGUAGUAUGUAGAUGCAGUGAUGUUGCAUUUUCAGGACCGGGACGUAAGAUG [3rd]  211 nM
10. GUGCGCGGUGCGGCCGCCACUCGGAUGCGAGUGAUGUUCGCGGGACGGACGCAAGUCCGUCAUUCGAGGACCGGGCAUGGCUGUA [#2 Same State - Tryptophan B Attempt #5 (HarryS)]  169 nM
11. UUAGGAGUGGGAGGAUAUCCUAAUAUGGGUGAUGUUAGCGAUGUUGAAAGUGUAGUGAUGUUGUGCGGAGAAGGUCCAGUGUUGA [BDazzled - #13 - Exc. FMN B]  161 nM
12. UGUACCGAGUCAGGAUAUCAUAAUAAAUCCAGUGAUGUUGGAAUAACCAGUACAAAGUACUGGCCUUGAGAAGGGACUUGGUACU [FmnBS 3 #SwitchBubble #StaticStem]  147 nM
13. UUCGAAAGUCGAAGGAGCGCUGUCGGUCAUAGACCAUAUCUGUAGUGAUGUUACAGAUGACAGCAGGUAGGUCGCGACAGAGACA [Arg B SS t18]  144 nM
14. CAACGAGUGAUGGUCGUUGACGGCCAUCCCGAGGAUAUGGGAUUUUCCAGAAGGCGGGAUCGCCCGGAGUGAUGUUCCGUGAUUU [Same State FMN A GF 15]  116 nM
15. UUGGCUGGACGGGAUACCAGCCAAAUCGUGGGCUUGGGAUGUCUAAGAGCCAGUGAUGUUGGCCCUUGGCAGCCCUCCCAGCUUG [Xerirala]  113 nM
